Paper PMC3328371

Molecular target: Dock8 (endogenous) (UniProt Q8C147)
Assay: anti-Flag co-IP, Dock8 immunoblot
Conditions: reference: Flag-Mob1B wild type; sites T12,T35

binding against the reference: lost
Substance: Flag-Mob1B (previously MOBKL1A) (from UniProt Q7L9L4) Flag-Mob1B[Thr12Ala/Thr35Ala]
